Earlier results, collected in article PMC4525192 (European Journal of Nuclear Medicine and Molecular Imaging, 2014).

System: tumour
Conditions: intravenously administered

## C[C@@H](O)[C@@H]1NC(=O)[C@H](CCCCN)NC(=O)[C@@H](Cc2c[nH]c3ccccc23)NC(=O)[C@H](Cc2ccc(O)cc2)NC(=O)[C@@H](NC(=O)[C@@H](Cc2ccccc2)NC(=O)CN2CCN(CC(=O)O)CCN(CC(=O)O)CCN(CC(=O)O)CC2)CSSC[C@@H](C(=O)N[C@H](CO)[C@@H](C)O)NC1=O [DOTATOC, (DOTA^0-Phe^1-Tyr^3) octreotide]
  Time after injection at which 80 % of Umax is reached: 45 min
  Time of tumoral accumulation maximum (Umax) after injection: about 70 min
